Measurements published in paper PMC12369401, “A β‐1,2‐glucan‐associated glycoside hydrolase family 1 β‐glucosidase from Streptomyces griseus” (Protein Science : A Publication of the Protein Society, 2025).

Legend:
[1] = molecular target: T1, SGR_2426r (SGR_2426 protein) (Streptomyces griseus, UniProt B1W1N0, E318G); test: X-ray crystal structure, soaked crystal; format: binding; conditions: 500 mM Sop2 soak, about 2 h; subsites -1 and +1; mutant printed E316G once
T1 construct: full length (no signal peptide), C-terminal His6 tag kept, pET30a, E. coli BL21(DE3); monomer by PISA

[2] = substrate: C[C@H]1O[C@@H](Oc2ccc([N+](=O)[O-])cc2)[C@H](O)[C@@H](O)[C@H]1O; test: p-nitrophenol release, biphasic fit; format: biochemical, Streptomyces griseus; conditions: pH 6.5, first (stronger) site of biphasic equation
Description: p-nitrophenol release, biphasic fit on SGR_2426r (SGR_2426 protein)

purified protein [3] = substrate: O=[N+]([O-])c1ccc(O[C@@H]2O[C@H](CO)[C@H](O)[C@H](O)[C@H]2O)cc1; test: purified protein; conditions: pH 6.5
purified protein [4] = substrate: O=[N+]([O-])c1ccc(O[C@@H]2O[C@H](CO)[C@@H](O)[C@H](O)[C@H]2O)cc1; test: purified protein; conditions: pH 6.5

T1 sequence (B1W1N0 entry or part of it E318G): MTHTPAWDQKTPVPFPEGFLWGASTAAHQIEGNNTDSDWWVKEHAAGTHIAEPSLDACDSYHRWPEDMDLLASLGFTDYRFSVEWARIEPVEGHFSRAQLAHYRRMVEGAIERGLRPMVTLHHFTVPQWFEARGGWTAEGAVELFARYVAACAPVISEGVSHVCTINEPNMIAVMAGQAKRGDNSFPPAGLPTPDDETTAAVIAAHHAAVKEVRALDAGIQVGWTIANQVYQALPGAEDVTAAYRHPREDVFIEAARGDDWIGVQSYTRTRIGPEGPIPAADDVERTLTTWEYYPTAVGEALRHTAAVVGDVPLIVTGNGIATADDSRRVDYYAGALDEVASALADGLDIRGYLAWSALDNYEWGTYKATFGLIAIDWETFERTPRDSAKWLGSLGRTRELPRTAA

Molecule | X-ray crystal structure, soaked crystal [1] | Km [2] [µM] | Vmax [2] [µmol/min/mg] | Vmax/Km [2] [µL/min/mg] | Km (purified protein [3]) [µM] | Vmax (purified protein [3]) [µmol/min/mg] | Vmax/Km (purified protein [3]) [µL/min/mg] | Km (purified protein [4]) [µM] | Vmax (purified protein [4]) [µmol/min/mg] | Vmax/Km (purified protein [4]) [µL/min/mg]
OC[C@H]1O[C@@H](O[C@H]2C(O)O[C@H](CO)[C@@H](O)[C@@H]2O)[C@H](O)[C@@H](O)[C@@H]1O (stereo partly shown) [Sop2, sophorose] | crystals of the E318G mutant prepared without Sop2 were soaked | – | – | – | – | – | – | – | – | –
SGR_2426r (SGR_2426 protein) (Streptomyces griseus subsp. griseus NBRC 13350) (protein, full length (no signal peptide), C-terminal His6 tag kept, pET30a, E. coli BL21(DE3); monomer by PISA) MTHTPAWDQKTPVPFPEGFLWGASTAAHQIEGNNTDSDWWVKEHAAGTHIAEPSLDACDSYHRWPEDMDLLASLGFTDYRFSVEWARIEPVEGHFSRAQLAHYRRMVEGAIERGLRPMVTLHHFTVPQWFEARGGWTAEGAVELFARYVAACAPVISEGVSHVCTINEPNMIAVMAGQAKRGDNSFPPAGLPTPDDETTAAVIAAHHAAVKEVRALDAGIQVGWTIANQVYQALPGAEDVTAAYRHPREDVFIEAARGDDWIGVQSYTRTRIGPEGPIPAADDVERTLTTWEYYPTAVGEALRHTAAVVGDVPLIVTENGIATADDSRRVDYYAGALDEVASALADGLDIRGYLAWSALDNYEWGTYKATFGLIAIDWETFERTPRDSAKWLGSLGRTRELPRTAA | – | 160 ± 100 | 4.6 | 29000 | 5800 ± 300 | 13 | 2300 | 1000 ± 100 | 28 | 28000
